In the supplement of paper PMC9170038:

What was measured:
MS2 coat protein [1] = experiment: apparent KD of MS2 coat protein, switch ON state; designed switch direction (-1 OFF switch, 1 ON switch): -1; higher = weaker reporter binding; conditions: FMN input: 0 or 200 uM; Eterna round: R93 (includes R88 designs)
How it was run: (§1)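 Titration buffer: 100 mM Tris-HCl pH 7.5, 80 mM KCl, 4 mM MgCl2, without or with constant ligand. Designed RNA switches transcribed on-chip from Illumina sequencing clusters received SNAP-549-labelled MS2 coat protein in twofold steps from 0.7 or 1.5 nM to 3 µM. Apparent KD is the median per design of fits to normalised cluster binding curves.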

MS2 coat protein [2] = experiment: apparent KD of MS2 coat protein, switch OFF state (with FMN for OFF switches, without FMN for ON switches); designed switch direction (-1 OFF switch, 1 ON switch): -1; higher = weaker reporter binding; conditions: FMN input: 0 or 200 uM; Eterna round: R93 (includes R88 designs)
How it was run: as §1

Sequence | apparent KD of MS2 coat protein (MS2 coat protein [1]) [nM] | apparent KD of MS2 coat protein (MS2 coat protein [2]) [nM]
AAAAAUUGAGGAUAUACAUGAGGAUCACCCAUGUUAGAACAAAAAAAAGGGAAAGAAAGUAGAAGGCAAUAAAA [Ex 3 May 26] | 20 | 26.9
AAAACGAUAGGAUAUACAUGAGGAUCACCCAUGUUAAAAUGUAGAAGGCUGAAAAAAAGUAGAAGGAUCAAAAA [EXC - 3] | 29.5 | 34.4
AAAACGUGAGGAUAUGCACCAAAAAAGAAAAAACGGGUACGACAUGAGGAUCACCCAUGUAGAAGGCACGAAAA [Frodo Flailing 8 - Jieux - Exclusion 2] | 35.3 | 37.2
AAAAGACAUGAGGAUCACCCAUGUCAGGAUAUGACUUGAAAAAUAAAAUAAAAACAUGUCAGAAGGGACAUGAA [Design 46: Sub-opt DB] | 28.5 | 25.2
AAAAGACAUGAGGAUCACCCAUGUGAGGAUAUCGGAAAAGGAAAAAUAAAAAAGAAGACGAGAAGGCACACCAA [Mat - Exclusion 1 - Eli mod - D75] | 43.9 | 48.2
AAAAGGGCAGGAUAUGCAUGUUGGCAAAAUUCUCAUCAAACACAUGAGGAUCACCCAUGUAGAAGGGCCAACGG [Inonenonat] | 110 | 161
AAAAGGUCAGGAUAUGCCCACCUGGUGGAAAAACCAGGUGGGCAGAAGGGACAUGAGGAUCACCCAUGUAAAAA [Excls4-Ii] | 53.1 | 78.2
AAAAUACAUGAGGAUCACCCAUGUGAGGAUAUGCAAAACCCAUAUAAAAAGGGAAAAAGCAGAAGGCACAAAAA [wbt round 1 mod 15] | 33 | 52.9
AAAAUGUCAGGAUAUGUAAAAAAAAAAAAAAAAAAAAAAAUACAGAAGGGACAUGAGGAUCACCCAUGUCAGGG [EX4 390: Minimal 2] | 113 | 79
AAACAGGGAGGAUAUACACCAUACAAACCUCUAAACAAAAGACAUGAGGAUCACCCAUGUAGAAGGCCCAACAA [Default title] | 57.5 | 103
AAACCACAUGAGGAUCACCCAUGUAAGGAUAUGAACGAAAAUAAAUAAAAAUAAAAGUUCAGAAGGUACAAAAA [66%, Wbt, 22] | 26.3 | 24.3
AAACCACAUGAGGAUCACCCAUGUUAGGAUAUGAACGAAAAUAAAUAAAAAUAAAAGUUCAGAAGGGACAAAAA [66%, Wbt, 21] | 21.5 | 14.9
AAACGUAGAGGAUAUACAUAAGUAUUACGAAAGUAAUACAAACAUGAGGAUCACCCAUGUAGAAGGCUACGAAA [MOD2 of Meechl's MS2 Ex2 (MS2 riboswitches - Exlclusion 2)] | 24.9 | 28
AAAGACAGAGGAUAUACAUGAGGAUCACCCAUGUGGCGAAAAAAAAUCCAUUUGGCAUGUAGAAGGCUGUAUGA [Orerzadi] | 66.9 | 51.3
AAAGAGCAAGGAUAUACAUGAGGAUCACCCAUGUAUGGAGAUACAAAACAAAAGAUCAGUAGAAGGUGCGGAUG [Rageleor] | 20.3 | 26.3
AAAGAUACAGGAUAUACAUGAGGAUCACCCAUGUGGAACCAAAAAUGGGAAAAAGAAAGUAGAAGGGUAUAAAA [Ex 3 May 37] | 38.8 | 35.7
AAAGAUACAGGAUAUACAUGAGGAUCACCCAUGUUAGACCAAAAAUGGGAAAAAGAAAGUAGAAGGGUAUAAAA [Ex 3 May 35] | 26 | 54.5
AAAGAUGGAGGAUAUACAUGAGGAUCACCCAUGUGGAAAAAAAAUUGGGAAAAAGAAAGUAGAAGGCCAAAAAA [Ex 3 May 42] | 48.1 | 155
AAAGGACAAGGAUAUACAUGAGGAUCACCCAUGUAAAAAACAUAAUAAAAGAACUUAUGUAGAAGGUGUCCAAA [69%, Moding Meechl, 8] | 38.3 | 177
AAAGGACAUGAGGAUCACCCAUGUGAGGAUAUGCUCUACGAACGAAUACACAUGAGAAGCAGAAGGCACAUAAG [try 1] | 43.8 | 142
